Experimental data reported in patent US20150231240A1, “ANTI-C16ORF54 ANTIBODIES AND METHODS OF USE THEREOF” (priority 2012, published 2015).

Experiments:
[1] = biological target: T1, human C16orf54 ECD fragment aa9-24 (human); test: peptide ELISA, 2 ug/ml peptide coated, 10 ug/ml antibody; column 'Human ECD & ECD fragments bound by antibody'
T1 peptide: SGRVEGPPAWEAAPWP
Procedure: (§1) Anti-C16orf54 antibodies which bind to human C16orf54, including antibodies that are crossreactive with cyno C16orf54, were tested for their binding to various peptides derived from C16orf54 in a peptide ELISA. A 384-well high binding black microplate (Greiner) was incubated with 2 μg/ml of protein (human, cyno, or mouse extracellular domain peptides) for 16 hours, incubated for 1 hr with a blocking buffer (PBS with 5% Fetal Bovine Serum), washed four times with TBS with Tween, incubated for 1 hour with 10 μg/ml of anti-C16orf54 antibody, washed four times with TBS with Tween, incubated for 1 hour with 10 μg/ml of Peroxidase-AffiniPure Goat Anti-Mouse IgG, Fcγ Fragment Specific (Jackson ImmunoResearch), washed four times with TBS with Tween, and peroxidase was detected with a luminometer (Molecular Devices) upon addition of SuperSignal® ELISA Pico Chemiluminescent Substrate (Thermo Scientific). The luminescence signal was determined.

[2] = biological target: T2, human C16orf54 ECD fragment aa1-15 (human); test: as above
T2 peptide: MPLTPEPPSGRVEGP
Procedure: as §1

[3] = biological target: T3, Human C16-ECD peptide (aa1-31) (human); test: column head 'Full kinetics (nM)' in the table of the C16orf54 peptide binding assays; method and antigen not described; 4 runs
T3 construct: Coated on plates in the peptide ELISA; also called human extracellular domain peptide
T3 peptide: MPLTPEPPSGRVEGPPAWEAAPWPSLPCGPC

[4] = biological target: T4, cynomolgus monkey C16orf54 (cynomolgus monkey (Macaca fascicularis), UniProt Q6UWD8 1-224 (human entry)); test: flow cytometry titration, F279-cyno-C16orf54 cells
T4 construct: also called cyno C16orf54; cyno-C16orf54
T4 chain: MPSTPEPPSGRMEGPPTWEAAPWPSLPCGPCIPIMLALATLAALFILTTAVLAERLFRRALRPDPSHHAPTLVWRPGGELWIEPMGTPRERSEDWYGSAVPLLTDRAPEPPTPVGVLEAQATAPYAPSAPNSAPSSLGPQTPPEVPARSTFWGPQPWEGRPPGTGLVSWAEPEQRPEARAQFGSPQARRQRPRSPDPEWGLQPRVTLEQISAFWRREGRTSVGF
Procedure: Anti-C16orf54 antibodies which bound to human C16orf54 were tested for their binding to cells expressing human C16orf54 and cells expressing cyno C16orf54. […] Median fluorescence intensities for each primary antibody concentration were used to derive a flow EC50/Kd using the one site-specific binding with Hill slope model in Prism (GraphPad Prism® Software). Results are shown as flow EC50 in Table 35.

[5] = biological target: T5, N-terminal 32 amino acids of huC16orf54 coupled to biotin (human, biotin at the C-terminus); test: biolayer interferometry (OctetQK384), hybridoma supernatant on streptavidin sensors coated with the biotinylated peptide
T5 construct: also called 32 amino acid N-terminal extracellular domain
T5 peptide: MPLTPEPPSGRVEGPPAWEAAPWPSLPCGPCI
Procedure: Eight anti-huC16orf54 monoclonal antibodies were further screened for binding and subsequent off-rate analysis using the OctetQK384® sytem (ForteBio). Hybridoma supernatants were screened for association to and dissocation from streptavidin sensors coated with the N-terminal 32 amino acids of huC16orf54 coupled to biotin, and the calculated offrates (kdis) are shown in Table 31. Cloned hybridomas with […] off-rates were carried forward for antibody purification.

[6] = biological target: T5, N-terminal 32 amino acids of huC16orf54 …; test: biolayer interferometry (OctetQK384), purified antibody on streptavidin sensors coated with the biotinylated peptide
Procedure: Affinity measurements of purified anti-huC16orf54 antibodies were carried out on the OctetQK384® sytem (ForteBio). After coating streptavidin sensors with the N-terminal 32 amino acids of huC16orf54 coupled to biotin at the C-terminus, association and dissociation of purified anti-huC16orf54 antibodies was monitored. KD values were derived using ForteBio's software.

[7] = biological target: T4, cynomolgus monkey C16orf54; test: flow cytometry, 10 ug/ml antibody, F279-cyno-C16orf54 cells
Procedure: (§2) Anti-C16orf54 antibodies which bound to human C16orf54 were tested for their reactivity with human C16orf54 and their crossreactivity with C16orf54 from cynomolgous monkeys (cyno C16orf54) using flow cytometry. Sarcoma cells transfected with and expressing human C16orf54 or cyno C16orf54 were washed with PBS with 0.1% BSA, incubated with FcX receptor blocking solution (BioLegend) for 15 minutes, incubated with 10 μg/ml of anti-C16orf54 antibody for 1 hour at 4° C., washed twice with PBS with 0.1% BSA, incubated with 20 μg/ml of R-Phycoerythrin-AffiniPure F(ab′)2 Fragment Goat Anti-Mouse IgG, Fcγ Fragment Specific (Jackson ImmunoResearch) for 30 minutes at 4° C., washed twice with PBS with 0.1% BSA, incubated with the viability dye TO-PRO-3 iodide (Life Technologies), and immediately analyzed on a MACSQuant Analyzer instrument (Miltenyi). For each cell line and anti-C16orf54 antibody, a fold change was derived by dividing the median fluorescence intensity for Phycoerythrin in the live cell population for the anti-C16orf54 antibody by the median fluorescence intensity for Phycoerythrin in the live cell population for the IgG isotype control antibody. A number of anti-C16orf54 antibodies (see, e.g., R29-8-57B, R29-8-136C, R29-7-1C, R29-67-7A, R29-67-4A, and R29-7-2A) bind human C16orf54 and also bind (e.g., are crossreactive with) cyno C16orf54.

human C16orf54 [8] = biological target: T6, human C16orf54 (human, UniProt Q6UWD8 1-224); test: flow cytometry, 10 ug/ml antibody, D42M1-huC16orf54 cells
T6 construct: also called huC16orf54; hC16orf54
T6 sequence: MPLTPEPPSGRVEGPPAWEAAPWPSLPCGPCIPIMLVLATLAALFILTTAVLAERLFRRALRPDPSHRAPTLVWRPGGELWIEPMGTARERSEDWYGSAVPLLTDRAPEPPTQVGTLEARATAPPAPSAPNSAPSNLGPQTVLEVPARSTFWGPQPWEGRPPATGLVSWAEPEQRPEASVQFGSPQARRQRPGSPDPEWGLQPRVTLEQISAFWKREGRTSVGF
Procedure: as §2

human C16orf54 [9] = biological target: T6, human C16orf54; test: flow cytometry titration, KG1 cells (endogenous human C16orf54)
[10] = biological target: T1, human C16orf54 ECD fragment aa9-24; test: peptide ELISA, 2 ug/ml peptide coated, 10 ug/ml antibody
Procedure: as §1

[11] = biological target: T2, human C16orf54 ECD fragment aa1-15; test: as above
Procedure: as §1

[12] = biological target: T3, Human C16-ECD peptide (aa1-31); test: column head 'Full kinetics (nM)' in the table of the C16orf54 peptide binding assays; method and antigen not described; 1 run
[13] = biological target: T7, cynomolgus monkey C16orf54 (cynomolgus monkey (Macaca fascicularis)); test: flow cytometry, 10 ug/ml antibody, F279-cyno-C16orf54 cells
T7 sequence: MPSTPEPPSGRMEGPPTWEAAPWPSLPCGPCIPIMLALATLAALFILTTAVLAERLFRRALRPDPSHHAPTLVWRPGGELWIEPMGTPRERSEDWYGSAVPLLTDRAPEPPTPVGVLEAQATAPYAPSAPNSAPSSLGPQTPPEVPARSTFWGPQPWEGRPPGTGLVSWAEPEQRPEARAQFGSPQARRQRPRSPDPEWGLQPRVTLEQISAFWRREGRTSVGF

[14] = biological target: T8, Cyno C16-ECD peptide (aa1-31) (cynomolgus monkey); test: peptide ELISA, 2 ug/ml peptide coated, 10 ug/ml antibody; column 'Cyno ECD bound by antibody'
T8 construct: Coated on plates in the peptide ELISA; also called cyno extracellular domain peptide; Cyno ECD
T8 peptide: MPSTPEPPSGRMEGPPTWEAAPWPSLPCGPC
Procedure: as §1

[15] = biological target: T3, Human C16-ECD peptide (aa1-31); test: column head 'Full kinetics (nM)' in the table of the C16orf54 peptide binding assays; method and antigen not described; 2 runs; 2 runs, stdev 0.02

B1: R29-7-2A (antibody, V domains shown)
VH: EVQLVESGGGLIQPKGSLKLSCVASGFSFNTHAMNWVRQAPGKGLEWVARIRSKSNNYARYYADSVKDRFTISRDDSQSILYLQMNNLKTEDTAMYYCVKQGDGGFAYWGQGTLVTVSA
VL: DIVMSQSPSSLAVSVGEKVTMSCKSSQSLLYSSNQKNYLAWYQQRPGQSPKLLIYWASARESGVPDRFTGSGSGTDFTLTISSVKAEDLAVYYCQQYYSYPPTFGAGTKVELK
notes: Murine monoclonal IgG2b from a hybridoma
- binding result [1]: binds
- binding result [2]: binds
- Kd [3]: 1.01 nM
- EC50 [4]: 2.7 nM
- koff [5]: 0.00707 s⁻¹
- Kd [6]: 1.3 nM
- koff [6]: 4.12e-05 s⁻¹
- kon [6]: 31900 M⁻¹ s⁻¹
- Median fold change relative to IgG control [7]: 78.5 fold
- Median fold change relative to IgG control (human C16orf54 [8]): 267 fold
- EC50 (human C16orf54 [9]): 1 nM

B2: R29-67-7A (antibody, V domains shown)
VH: DVQLQESGPGLVKPSQSLSLTCTVTGYSITSDYAWNWIRQFPGNKLEWMGYINYSGRTRYNPSLNSRISLTRDTSTNQFFLQLNSVTTEDTATYYCARENYDYEFYAMDYWGQGTSVTVSS
VL: DIVMSQSPSSLAVSVGEKVTMSCKSSQNLLYSSNQKNYLAWYQQKPGQSPKLLIYWASTRESGVPDRFTGSGSGTDFTLTISSVKAEDLAVYYCQQYYIYRTFGGGTKLEIK
notes: Murine monoclonal IgG2a from a hybridoma
- binding result [10]: binds
- binding result [11]: binds
- Kd [12]: 2.51 nM
- EC50 [4]: 3.7 nM
- koff [5]: 0.00845 s⁻¹
- Median fold change relative to IgG control [7]: 35.6 fold
- Median fold change relative to IgG control (human C16orf54 [8]): 140 fold
- EC50 (human C16orf54 [9]): 7.3 nM

B3: R29-8-58C (antibody, V domains shown)
VH: EVKLVESGGGLVKPGGSLKFSCAASGFTFSSYAVSWVRQTPEKRLEWVASITSGGRSYYPDSVKGRFTISRDNARSMLYLHMSSLRSEDTAMYYCTRGWDENDLWGQGTTLTVSS
VL: DVVMTQTPLSLFVSLGDQASISCRSSQSLLYSNGNTYLHWYLQRPGQSPQLLIYKVSNRFSGVPDRFSGSGSGTDFTLKISRVEAEDLGVYFCSQTTHVPWTFGGGTKLEIK
notes: Murine monoclonal antibody from a hybridoma
- Median fold change relative to IgG control [13]: 1.4 fold
- Median fold change relative to IgG control (human C16orf54 [8]): 184 fold
- EC50 (human C16orf54 [9]): 0.6 nM

B4: R29-8-75B (antibody, V domains shown)
VH: DVQLVESGGGLVQPGGSRKLSCAASGFTFSRFGMHWVRQAPEKGLEWVAYISSGSSTIYYADTVKGRFTISRDNPKNTLFLQMTSLRSEDTAMYYCARVDYDVALAYWGQGTLVTVSA
VL: GVLMTQTPLSLPVSLGDQASISCRSSQSIVHRNGNTYLEWYLQKPGQSPKLLIYKVSNRFSGVPDRFSGSGSGTDFTLKISRVEAEDLGVYYCFQGSQWTFGGGTKLEIK
notes: as for B3
- binding result [1]: binds
- binding result [2]: binds
- binding result [14]: binds
- Kd [15]: 0.09 nM
- Median fold change relative to IgG control [7]: 7.8 fold
- Median fold change relative to IgG control (human C16orf54 [8]): 148 fold
- EC50 (human C16orf54 [9]): 6.5 nM
